Reference: publication PMC11793827 (2025)

B1: DP4F2 (VHH)
VHH: EVQLQASGGGFVQPGGSLRLSCAASGTTYSERVMGWFRQAPGKEREFVSAISSGQSDQTYYADSVKGRFTISRDNSKNTVYLQMNSLRAEDTATYYCAPFAGDANLPREWYWGQGTQVTVSS
B2: AP1C3 (VHH)
VHH: EVQLQASGGGFVQPGGSLRLSCAASGRTYRGYSMGWFRQAPGKEREFVSAISSWSDDWTAYADSVKGRFTISRDNSKNTVYLQMNSLRAEDTATYYCAWQYIDEIQYYWGQGTQVTVSS
B3: AP1A5 (Fc fusion)
chain: EVQLQASGGGFVQPGGSLRLSCAASGSTASHYTMGWFRQAPGKEREFVSAISSGRDHAKQYADSVKGRFTISRDNSKNTVYLQMNSLRAEDTATYYCAYEEINATQKDTLYWGQGTQVTVSS
B4: BP2A6 (VHH)
VHH: EVQLQASGGGFVQPGGSLRLSCAASGQTFSHYIMGWFRQAPGKEREFVSAISAGQGHATYYADSVKGRFTISRDNSKNTVYLQMNSLRAEDTATYYCAKYQDTIAPLYWGQGTQVTVSS
B5: AP1D4 (Fc fusion)
chain: EVQLQASGGGFVQPGGSLRLSCAASGHTFDAHRMGWFRQAPGKEREFVSAISSWGQSSTYYADSVKGRFTISRDNSKNTVYLQMNSLRAEDTATYYCAQTDEGNQYVYWGQGTQVTVSS

These binders were tested against WT SARS-CoV-2 RBD (SARS-CoV-2, UniProt P0DTC2 14-1211) (assay: ELISA).

Point of comparison: B2, Kd 0.08 nM. Against it:
- B1 — 130-fold higher, 10.7 nM
- B3 — 15-fold higher, 1.19 nM
- B4 — within 1.5-fold, 0.06 nM
- B5 — 12-fold higher, 0.97 nM
